Drawing on paper PMC12724383, this text covers binding for three sequences.

Holding throughout (settings): 50 mM HEPES, 150 mM NaCl, 10% glycerol (pH not given for the reactions; protein storage buffer pH 7.5), room temperature, 15 min (EMSA) or 40 min …
Background: In EMSA bound probe runs differently from free probe, usually more slowly.

For data set [1], the system named is T1, DbuR (Pseudomonas putida), ORF:fe707e5d.
T1 sequence: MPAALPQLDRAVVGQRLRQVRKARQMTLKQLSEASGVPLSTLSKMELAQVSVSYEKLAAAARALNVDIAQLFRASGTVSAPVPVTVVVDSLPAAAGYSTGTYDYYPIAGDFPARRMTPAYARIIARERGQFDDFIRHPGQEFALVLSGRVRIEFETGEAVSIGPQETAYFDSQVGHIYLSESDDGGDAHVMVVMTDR
The data set is described as follows: DNase I footprinting.

The test system is the same in data set [2]. Nature of the data set: EMSA.
For data set [3] the test system is unchanged. The data set is described as follows: competition EMSA.

On to “TCAGGGATCTCGGCATGCGGCGGTGGTCGGGCATCTTACCTTGGACCCTTGCGCATTTCTAAATTCTCATATATTAGAATTCTCATAAATGATAATTGCCTGGCAGGAGCGTGCATGACCCCGACCTACGACA (double strand) [Pdbu 133 bp, 5'-FAM/5'-HEX]”, for which the binding result in data set [1] is “binds”.
As for “TCAGGGATCTCGGCATGCGGCGGTGGTCGGGCATCTTACCTTGGACCCTTGCGCATTTCTAAATTCTCATATATTAGAATTCTCATAAATGATAATTGCCTGGCAGGAGCGTGCATGACCCCGACCTACGACA (double strand) [Pdbu 133 bp, 5'-FAM]”, the binding entry in data set [2] is reported as “binds”.
Turning to “TCAGGGATCTCGGCATGCGGCGGTGGTCGGGCATCTTACCTTGGACCCTTGCGCATTTCTAAATTCTCATATATTAGAATTCTCATAAATGATAATTGCCTGGCAGGAGCGTGCATGACCCCGACCTACGACA (double strand) [Pdbu 133 bp, unlabeled]”, the binding entry in data set [3] is recorded as “binds”.
